{"source": "paper PMC9482650", "about": "“Quantitative fragmentomics allow affinity mapping of interactomes” (Nature Communications, 2022)", "assay_in_all_cases": "holdup assay", "design_in_all_cases": "key: below the threshold = too weak to quantify, mostly under pKd 3.1 to 4", "settings_in_all_cases": "plain residues with an end cap or a label only (N-terminal biotin on a linker: ttds)", "key": {"Q92614": {"biological_target": "Q92614"}, "Q9UMS6": {"biological_target": "Q9UMS6"}, "MPDZ_11, O75970": {"biological_target": "T1, MPDZ_11, O75970", "T1 sequence (O75970 1720-1817, limits assumed, looked up)": "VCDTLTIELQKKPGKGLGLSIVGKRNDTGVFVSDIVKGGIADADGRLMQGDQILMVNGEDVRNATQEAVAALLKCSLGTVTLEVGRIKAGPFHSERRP"}, "MAGI3_3, Q5TCQ9": {"biological_target": "MAGI3_3, Q5TCQ9", "sequence (Q5TCQ9 572-655)": "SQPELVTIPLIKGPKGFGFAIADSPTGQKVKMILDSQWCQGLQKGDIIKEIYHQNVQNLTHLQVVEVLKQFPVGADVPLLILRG"}, "IL16_2, Q14005": {"biological_target": "IL16_2, Q14005", "sequence (Q14005 350-450)": "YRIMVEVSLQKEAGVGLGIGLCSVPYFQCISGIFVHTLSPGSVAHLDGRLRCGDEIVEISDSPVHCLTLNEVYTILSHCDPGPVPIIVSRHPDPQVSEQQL"}, "MAGI1_4, Q96QZ7": {"biological_target": "MAGI1_4, Q96QZ7", "sequence (Q96QZ7 other isoform, or with tags, fused parts or gaps)": "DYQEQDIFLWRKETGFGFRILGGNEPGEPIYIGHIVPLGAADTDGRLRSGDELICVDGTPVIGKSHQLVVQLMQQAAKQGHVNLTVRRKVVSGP"}, "SHROOM4, Q9ULL8": {"biological_target": "T2, SHROOM4, Q9ULL8", "T2 sequence (Q9ULL8 5-102, limits assumed, looked up)": "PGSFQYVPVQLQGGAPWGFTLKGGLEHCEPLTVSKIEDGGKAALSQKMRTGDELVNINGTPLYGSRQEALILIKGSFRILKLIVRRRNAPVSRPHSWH"}, "INTU, Q9ULD6": {"biological_target": "T3, INTU, Q9ULD6", "T3 sequence (Q9ULD6 180-273, limits assumed, looked up)": "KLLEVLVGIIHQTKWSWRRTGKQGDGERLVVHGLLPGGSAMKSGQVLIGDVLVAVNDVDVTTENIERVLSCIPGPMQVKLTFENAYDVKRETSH"}, "PDZD7_2, Q9H5P4": {"biological_target": "T4, PDZD7_2, Q9H5P4", "T4 sequence (Q9H5P4 205-303, limits assumed, looked up)": "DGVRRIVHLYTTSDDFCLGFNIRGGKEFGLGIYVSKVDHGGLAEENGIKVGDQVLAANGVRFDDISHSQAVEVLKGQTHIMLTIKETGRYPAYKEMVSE"}, "RIMS1, Q86UR5": {"biological_target": "RIMS1, Q86UR5", "sequence (Q86UR5 584-692)": "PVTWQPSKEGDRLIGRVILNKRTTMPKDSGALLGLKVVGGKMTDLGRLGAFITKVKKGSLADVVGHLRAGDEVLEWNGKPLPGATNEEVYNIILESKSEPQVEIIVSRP"}, "Q9ULJ8": {"biological_target": "Q9ULJ8"}, "PDZD2_4, O15018": {"biological_target": "T5, PDZD2_4, O15018", "T5 sequence (O15018 723-823, limits assumed, looked up)": "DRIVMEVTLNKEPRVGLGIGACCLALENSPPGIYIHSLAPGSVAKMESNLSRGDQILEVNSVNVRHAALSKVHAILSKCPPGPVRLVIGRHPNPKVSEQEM"}, "USH1C_1, Q9Y6N9": {"biological_target": "T6, USH1C_1, Q9Y6N9", "T6 sequence (Q9Y6N9 82-179, limits assumed, looked up)": "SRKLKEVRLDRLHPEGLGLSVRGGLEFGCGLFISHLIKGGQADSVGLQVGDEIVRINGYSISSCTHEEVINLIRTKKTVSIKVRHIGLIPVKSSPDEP"}, "NHERF1_2, O14745": {"biological_target": "T7, NHERF1_2, O14745", "T7 sequence (O14745 149-244, limits assumed, looked up)": "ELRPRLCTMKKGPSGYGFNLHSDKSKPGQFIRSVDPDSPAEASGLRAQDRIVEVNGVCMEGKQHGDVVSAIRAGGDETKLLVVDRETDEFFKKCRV"}, "Q13009": {"biological_target": "Q13009"}, "MAGIX, Q9H6Y5": {"biological_target": "MAGIX, Q9H6Y5", "sequence (Q9H6Y5 118-211)": "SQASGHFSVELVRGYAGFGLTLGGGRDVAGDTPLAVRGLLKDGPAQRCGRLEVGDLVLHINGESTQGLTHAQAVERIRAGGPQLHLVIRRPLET"}, "PDZD2_1, O15018": {"biological_target": "T8, PDZD2_1, O15018", "T8 sequence (O15018 80-192, limits assumed, looked up)": "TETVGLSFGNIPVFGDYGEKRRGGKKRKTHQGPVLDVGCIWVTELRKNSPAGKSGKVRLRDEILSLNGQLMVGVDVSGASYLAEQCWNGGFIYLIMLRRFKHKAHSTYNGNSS"}, "LNX2_4, Q8N448": {"biological_target": "T9, LNX2_4, Q8N448", "T9 sequence (Q8N448 595-690, limits assumed, looked up)": "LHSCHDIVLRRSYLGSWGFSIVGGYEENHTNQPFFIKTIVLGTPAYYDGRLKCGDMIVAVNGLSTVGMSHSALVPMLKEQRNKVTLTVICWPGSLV"}, "NHERF2_1, Q15599": {"biological_target": "NHERF2_1, Q15599", "sequence (Q15599 9-91)": "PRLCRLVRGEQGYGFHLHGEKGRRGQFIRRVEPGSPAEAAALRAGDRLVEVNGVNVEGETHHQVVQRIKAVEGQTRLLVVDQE"}, "PTPN13_5, Q12923": {"biological_target": "T10, PTPN13_5, Q12923", "T10 sequence (Q12923 1877-1975, limits assumed, looked up)": "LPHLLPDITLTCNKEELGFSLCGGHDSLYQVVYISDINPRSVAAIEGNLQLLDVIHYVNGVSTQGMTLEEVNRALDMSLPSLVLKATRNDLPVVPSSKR"}, "PTPN4, P29074": {"biological_target": "T11, PTPN4, P29074", "T11 sequence (P29074 512-599, limits assumed, looked up)": "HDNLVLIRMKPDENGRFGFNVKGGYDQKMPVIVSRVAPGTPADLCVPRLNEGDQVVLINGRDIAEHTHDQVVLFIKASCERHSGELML"}, "NHERF4_3, Q86UT5": {"biological_target": "NHERF4_3, Q86UT5", "sequence (Q86UT5 325-412)": "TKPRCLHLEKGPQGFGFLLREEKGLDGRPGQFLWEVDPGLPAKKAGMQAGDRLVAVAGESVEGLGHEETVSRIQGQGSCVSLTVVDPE"}, "AHNAK2, Q8IVF2": {"biological_target": "AHNAK2, Q8IVF2", "sequence (Q8IVF2 108-193)": "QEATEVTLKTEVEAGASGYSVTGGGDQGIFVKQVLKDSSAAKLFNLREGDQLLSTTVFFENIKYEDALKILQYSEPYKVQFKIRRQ"}, "Q8TDM6": {"biological_target": "Q8TDM6"}, "DLG2_1, Q15700": {"biological_target": "DLG2_1, Q15700"}, "RGS12, O14924": {"biological_target": "T12, RGS12, O14924", "T12 sequence (O14924 17-108, limits assumed, looked up)": "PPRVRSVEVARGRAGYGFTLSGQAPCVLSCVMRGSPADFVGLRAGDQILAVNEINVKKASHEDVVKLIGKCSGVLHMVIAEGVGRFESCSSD"}}, "data": [{"binder": "PSRDRKETSI", "note": "[RALBP1, Q15311]", "values": [{"measurement": "pKd", "setting": "Q92614", "value": "below the threshold"}, {"measurement": "pKd", "setting": "Q9UMS6", "value": "below the threshold"}, {"measurement": "pKd", "setting": "MPDZ_11, O75970", "value": "below the threshold"}, {"measurement": "pKd", "setting": "MAGI3_3, Q5TCQ9", "value": "below the threshold"}, {"measurement": "pKd", "setting": "IL16_2, Q14005", "value": "below the threshold"}, {"measurement": "pKd", "setting": "MAGI1_4, Q96QZ7", "value": "below the threshold"}, {"measurement": "pKd", "setting": "SHROOM4, Q9ULL8", "value": "below the threshold"}, {"measurement": "pKd", "setting": "INTU, Q9ULD6", "value": "below the threshold"}, {"measurement": "pKd", "setting": "PDZD7_2, Q9H5P4", "value": "below the threshold"}, {"measurement": "pKd", "setting": "RIMS1, Q86UR5", "value": "below the threshold"}, {"measurement": "pKd", "setting": "Q9ULJ8", "value": "below the threshold"}, {"measurement": "pKd", "setting": "PDZD2_4, O15018", "value": "below the threshold"}, {"measurement": "pKd", "setting": "USH1C_1, Q9Y6N9", "value": "below the threshold"}, {"measurement": "pKd", "setting": "NHERF1_2, O14745", "value": "below the threshold"}, {"measurement": "pKd", "setting": "Q13009", "value": "below the threshold"}, {"measurement": "pKd", "setting": "MAGIX, Q9H6Y5", "value": "below the threshold"}, {"measurement": "pKd", "setting": "PDZD2_1, O15018", "value": "below the threshold"}, {"measurement": "pKd", "setting": "LNX2_4, Q8N448", "value": "below the threshold"}, {"measurement": "pKd", "setting": "NHERF2_1, Q15599", "value": "below the threshold"}, {"measurement": "pKd", "setting": "PTPN13_5, Q12923", "value": "below the threshold"}, {"measurement": "pKd", "setting": "PTPN4, P29074", "value": 3.83}, {"measurement": "pKd", "setting": "NHERF4_3, Q86UT5", "value": "below the threshold"}, {"measurement": "pKd", "setting": "AHNAK2, Q8IVF2", "value": "below the threshold"}, {"measurement": "pKd", "setting": "Q8TDM6", "value": "below the threshold"}, {"measurement": "pKd", "setting": "DLG2_1, Q15700", "value": 4.34}, {"measurement": "pKd", "setting": "RGS12, O14924", "value": "below the threshold"}]}]}
